Experimental data from patent publication US20240262870.

Target: hexa-histidine tagged ComP from A. baylyi ADP1 (ComPADP1)

B1: PglS oligosaccharyltransferase from A. baylyi ADP1 (PglSADP1) (protein)
chain: MNSIFKKIKNYTIVSGVFFLGSAFIIPNTSNLSSTLYKELIAVLGLLILLTVKSFDYKKILIPKNFYWFLFVIFIIFIQLIVGEIYFFQDFFFSISFLVILFLSFLLGFNERLNGDDLIVKKIAWIFIIVVQISFLIAINQKIEIVQNFFLFSSSYNGRSTANLGQPNQFSTLILITLFLLCYLREKNSLNNMVFNILSFCLIFANVMTQSRSAWISVILISLLYLLKFQKKIELRRVIFFNIVFWTLVYCVPLLFNLIFFQKNSYSTFDRLTMGSSRFEIWPQLLKAVFHKPFIGYGWGQTGVAQLETINKSSTKGEWFTYSHNLFLDLMLWNGFFIGLIISILILCFLIELYSSIKNKSDLFLFFCVVAFFVHCLLEYPFAYTYFLIPVGFLCGYISTQNIKNSISYFNLSKRKLTLFLGCCWLGYVAFWVEVLDISKKNEIYARQFLFSNHVKFYNIENYILDGFSKQLDFQYLDYCELKDKYQLLDFKKVAYRYPNASIVYKYYSISAEMKMDQKSANQIIRAYSVIKNQKIIKPKLKFCSIEY
Question: B1 was tested. Which “glycosylation of acceptor with K. pneumoniae K1 or K2 capsular polysaccharide, western blot” value did it give?
Answer: Its value is “PglS was able to glycosylate ComP with the K1 and K2 capsular polysaccharides from K. pneumonia”.
